# The DeepSol protein solubility set
# Assay: soluble on expression in E. coli; label from the status in PepcDB or PDB records
row,Sequence,soluble on expression in E. coli
1,MPFTLGQRWISDTESELGLGTVVAVDARTVTLLFPSTGENRLYARSDSPVTRVMFNPGDTITSHDGWQMQVEEVKEENGLLTYIGTRLDTEESGVALREVFLDSKLVFSKPQDRLFAGQIDRMDRFALRYRARKYSSEQFRMPYSGLRGQRTSLIPHQLNIAHDVGRRHAPRVLLADEVGLGKTIEAGMILHQQLLSGAAERVLIIVPETLQHQWLVEMLRRFNLRFALFDDERYAEAQHDAYNPFDTEQLVICSLDFARRSKQRLEHLCEAEWDLLVVDEAHHLVWSEDAPSREYQAIEQLAEHVPGVLLLTATPEQLGMESHFARLRLLDPNRFHDFAQFVEEQKNYRPVADAVAMLLAGNKLSNDELNMLGEMIGEQDIEPLLQAANSDSEDAQSARQELVSMLMDRHGTSRVLFRNTRNGVKGFPKRELHTIKLPLPTQYQTAIKVSGIMGARKSAEDRARDMLYPERIYQEFEGDNATWWNFDPRVEWLMGYLTSHRSQKVLVICAKAATALQLEQVLREREGIRAAVFHEGMSIIERDRAAAWFAEEDTGAQVLLCSEIGSEGRNFQFASHMVMFDLPFNPDLLEQRIGRLDRIGQAHDIQIHVPYLEKTAQSVLVRWYHEGLDAFEHTCPTGRTIYDSVYNDLINYLASPDQTEGFDDLIKNCREQHEALKAQLEQGRDRLLEIHSNGGEKAQALAESIEEQDDDTNLIAFAMNLFDIIGINQDDRGDNMIVLTPSDHMLVPDFPGLSEDGITITFDREVALAREDAQFITWEHPLIRNGLDLILSGDTGSSTISLLKNKALPVGTLLVELIYVVEAQAPKQLQLNRFLPPTPVRMLLDKNGNNLAAQVEFETFNRQLNAVNRHTGSKLVNAVQQDVHAILQLGEAQIEKSARALIDAARNEADEKLSAELSRLEALRAVNPNIRDDELTAIESNRQQVMESLDQAGWRLDALRLIVVTHQ,soluble
2,MPGALSHIRVLDLSRVLAGPWAGQILADLGAEVIKIERPGSGDDTRAWGPPFLKDAEGNDTSEAAYYLSANRNKKSVTVDFTQPEGQRIVRELAAKADILLENFKVGGLKAYGLDYESLKQVNPKLIYCSITGFGQSGPYAKRAGYDFMIQGLGGLMSLTGRADNEEGAGPVKVGVALTDILTGLYSSTAVLAALAHRDVSGIGQHIDMALLDVQVACLANQTLNYLTTGVPPRRLGNAHPNIVPYQDFPTADGDMILTVGNDSQFRKFAELADHPEWADDPRFATNKARVANREVLIPLIRQATVLHTTAEWILSLERAGVPCGPINDLAQVFADPQVQARGLRVELPHPLAGTVPQVASPIRLSETPVEYRNPPPTLGQHTDEVLETLLGLDAAALERLRDGKVI,not soluble
3,MPGIDIVIVNWNSGNQLRECLRSIGNLVGEAEPLTVTVVDNASCDGSADGLPEPSCPLRVIRNRANLGFGRASNLGAREGSADYLLFLNPDTRLHPGALSIPLGFMESETGRHVGICGVQCLDETGGVARCCARFPTAWRLVGQALGLDRLFPRWIPPHFLGEWPHDSDRDVDQVIGAFFFVRRAVFEQLGGFDERFFVYYEDLDFALRARRAGWGSRYLAGARIFHRGGGVSRQISARRLHYLTHSKLRYARKHFAGIDAFLVSAAVLLLEPLARSAYALGRGRPGEFADTWKAFGGLYASLCRPGENGRLEHHHHHH,not soluble
4,MPGKLLWGDIMELEAPLEESESQKKERQKSDRRKSRHHYDSDEKSETRENGVTDDLDAPKAKKSKMKEKLNGDTEEGFNRLSDEFSKSHKSRRKDLPNGDIDEYEKKSKRVSSLDTSTHKSSDNKLEETLTREQKEGAFSNFPISEETIKLLKGRGVTYLFPIQVKTFGPVYEGKDLIAQARTGTGKTFSFAIPLIERLQRNQETIKKSRSPKVLVLAPTRELANQVAKDFKDITRKLSVACFYGGTSYQSQINHIRNGIDILVGTPGRIKDHLQSGRLDLSKLRHVVLDEVDQMLDLGFAEQVEDIIHESYKTDSEDNPQTLLFSATCPQWVYKVAKKYMKSRYEQVDLVGKMTQKAATTVEHLAIQCHWSQRPAVIGDVLQVYSGSEGRAIIFCETKKNVTEMAMNPHIKQNAQCLHGDIAQSQREITLKGFREGSFKVLVATNVAARGLDIPEVDLVIQSSPPQDVESYIHRSGRTGRAGRTGICICFYQPRERGQLRYVEQKAGITFKRVGVPSTMDLVKSKSMDAIRSLASVSYAAVDFFRPSAQRLIEEKGAVDALAAALAHISGASSFEPRSLITSDKGFVTMTLESLEEIQDVSCAWKELNRKLSSNAVSQITRMCLLKGNMGVCFDVPTTESERLQAEWHDSDWILSVPAKLPEIEEYYDGNTSSNSRQRSGWSSGRSGRSGRSGGRSGGRSGRQSRQGSRSGSRQDGRRRSGNRNRSRSGGHKRSFD,soluble
5,MPGQQATKHESLLDQLSLKGKVVVVTGASGPKGMGIEAARGCAEMGAAVAITYASRAQGAEENVKELEKTYGIKAKAYKCQVDSYESCEKLVKDVVADFGQIDAFIANAGATADSGILDGSVEAWNHVVQVDLNGTFHCAKAVGHHFKERGTGSLVITASMSGHIANFPQEQTSYNVAKAGCIHMARSLANEWRDFARVNSISPGYIDTGLSDFVPKETQQLWHSMIPMGRDGLAKELKGAYVYFASDASTYTTGADLLIDGGYTTR,soluble
6,MPGSPRPAPSWVLLLRLLALLRPPGLGEACSCAPAHPQQHICHSALVIRAKISSEKVVPASADPADTEKMLRYEIKQIKMFKGFEKVKDVQYIYTPFDSSLCGVKLEANSQKQYLLTGQVLSDGKVFIHLCNYIEPWEDLSLVQRESLNHHYHLNCGCQITTCYTVPCTISAPNECLWTDWLLERKLYGYQAQHYVCMKHVDGTCSWYRGHLPLRKEFVDIVQP,soluble
7,MPGSRTYRKVDPPDVEQLGRSSWTLLHSVAASYPAQPTDQQKGEMKQFLNIFSHIYPCNWCAKDFEKYIRENAPQVESREELGRWMCEAHNKVNKKLRKPKFDCNFWEKRWKDGWDE,not soluble
8,MPGSTGKTRTAEAGETARRDQDSNSYVYGVVPADVELDPEARGVGDPPGRISLVRHGEIAALVSDIVLDRPLGRPDDLLAHQRLLDATAAEVPVLPFRFGAVVSDSEAVVEELLGPNHDDFLAALKELEGRAEYVVKGRYVERVVIGEVLAEDPEATRLREEIRGRPEEATWDARIQLGQMIGEAVAAKRDADTAALVDALAPKCAGVVVREPTHEQDAVHVAVLVDTDRQAEFEKILDEFGERWAGRIDLRLLGPLAPYDFVMAPGQGG,soluble
9,MPGYYKISHSWEYRRRTCQDDVLLEAVITSDTNLNTEKTLLQWLNDKNKNKGTNTVDYKDITCWYYGGVWLHYAINNNALSLYMHSSGEDAFDSLNYCAYEIAKTFYKNHSDISILWIEHPHKRNKLKET,not soluble
10,MPHIAHRKNGTYDQSGFNCSLFCSFVQKQGCRTMIQLTTPVENPVIRERLISYANKLFFVGSCFSLEVGSYMRQAGFRTEINPFGIMYNPLSIAGCIGRLLDPVPYQAEELFEYDGLFHSFDHHGAFSHAKKEETLQHLNDSLHVGHEALLRSDRLFFTWGTAFVYNYVSANKVVANCHKLPERLFRRQMVGIDDLLAVWIPLIERLLSSSPDRRIILTVSPVRHLRDGAVGNQQSKATLVLFCKALTGRFPEHLYYFPAYEIMMDELRDYRYYADDMTHPSSLAVSIIRERFADIFVEKDHREAMDACLKLRRRMAHRPLHPDSPDAMLFEAQTQTLVSALLRKYPDLVLDDIAGEMES,not soluble
11,MPHQSQPGFLLPAIQHHSMQGSLPGERDVTVVGGGFGGLAAAAYLARAGASVTLLEQHDTVGGRAGVLERDGFRFDTGPSWYLMPDVFERFFDHFDHDPHDFYELTRLDPQYRVFWTDGDSATIEPNRRNAHELFESYEEGAGDALATYLDRAATNYDLAMNRVVYPDRTAFRDYASTDMLPLASRLRLFGNMDDYVSRFFDHPKLRQLLEYTLVFLGGAPHNTPALYSIMSHVDLNGNVFYPEGGIAGVVDALAELAVEQGATIETGVGVNAISGRRGEFTLATDDGTRTTDLVVNNANPAYAERELLDTGGRDHAPDYWDDQTYAPSALMFYLGVEGDVEPLAHHSLVLPPDWDGHFAQLFDDPGWPDDPAFYLSVASKTDDTVAPDGHEAVVILLPIAPGLDDTPEIRAQYRDRLLGTLAAQTGVDLRDRIVVEESACVSEFSEQFGDPGGTALGLAHTLFQTGPLRPGKRDGPDGHYYVGAYTNPGIGMPMCLISGEHVTKAVIDDDPAASGSTDPLAVPGEFNFDTPTTAD,not soluble
12,MPIKIPDNLPAKEILTKENIFVMAESRAYSQDIRPLKIVILNLMPIKQTTETQLLRLLGNTPLQVEVSFMYTDTHISKNTSYDHLQTFYQTIDEVKQKKFDGMIITGAPIETLPYDEVDYWNELKQIMEWSKTNVTSTLHICWGAQAGLFYHYGVEKVPLPEKQFGVYPHKINVPNVKLLRGFDDEFYVPHSRHTDINKAQIEAHPDLEILSESEQAGVYIVASKDGKQIFVTGHSEYDACTLQQEYERDRARGLNIQVPENYFPNDDATRKPLLRWRAHSYLLFSNWLNYYVYQETPYDLSRMAGDPLEHHHHHH,soluble
13,MPILEKAPQKMPVKASSWEELDLPKLPVPPLQQTLATYLQCMQHLVPEEQFRKSQAIVKRFGAPGGLGETLQEKLLERQEKTANWVSEYWLNDMYLNNRLALPVNSSPAVIFARQHFQDTNDQLRFAACLISGVLSYKTLLDSHSLPTDWAKGQLSGQPLCMKQYYRLFSSYRLPGHTQDTLVAQKSSIMPEPEHVIVACCNQFFVLDVVINFRRLSEGDLFTQLRKIVKMASNEDERLPPIGLLTSDGRSEWAKARTVLLKDSTNRDSLDMIERCICLVCLDGPGTGELSDTHRALQLLHGGGCSLNGANRWYDKSLQFVVGRDGTCGVVCEHSPFDGIVLVQCTEHLLKHMMTSNKKLVRADSVSELPAPRRLRWKCSPETQGHLASSAEKLQRIVKNLDFIVYKFDNYGKTFIKKQKYSPDGFIQVALQLAYYRLYQRLVPTYESASIRRFQEGRVDNIRSATPEALAFVQAMTDHKAAMPASEKLQLLQTAMQAQTEYTVMAITGMAIDNHLLALRELARDLCKEPPEMFMDETYLMSNRFVLSTSQVPTTMEMFCCYGPVVPNGYGACYNPQPEAITFCISSFHSCKETSSVEFAEAVGASLVDMRDLCSSRQPADSKPPAPKEKARGPTKPSNLDSSH,soluble
14,MPKFEVPDGWTVQAFRFTLDPTEDQAKALARHFGARRKAYNWTVATLKADIQAWHASGTVTAKPSLRVLRKRWNTVKDDVCVNTETGVAWWPECSKEAYADGIAGAVEAYWNWQTSRAGKRAGKRVGFPRFKRKGRDQDRVSFTTGAMRVEPDRRHLTLPVIGTVRTHENTRRIERLIKAGRARVLAISVRRNGTRLDASVRVLVQRPQQPKVVHPGSRVGVDVGVRRLATVATADGTAIEQVENPRPLGAALRELRHVCRARSRCTKGSRRYRERTTQISRLHRRVNDVRTHHLHVLTTRLAQTHGRIVVEGLDATEMLRQKGLPGARARRRGLSDAALGTPRRHLSYKTVWYGSALVVADRWFPSSKTCHACRHVQDIGWDEQWQCDRCSVVHQRDDCAAINLARYEETSSIVGPVGAAVKRGADRKTGPRPAGGCEARKGSSPKAAEQPRDGVQVA,not soluble
15,MPKFVVIELNDDAATIDLLSYCVKKNFERVSLLTRLEDHPYLRDDQDVVQDDTQSQGTDGMLLQLNDEERQRLMKMISTPGPQTLSMERIQMAPGQGQHILQQHQIPSTSSYTNNSFIYIKSDPQYKDEPQQQSNQFDATVNSVAHGQAGLSTLEMFACNGSPNGGDVLRRKTPSRKAEDSIKATCKVCGHDVMYSPQRTWNLMRHVWIMHQSSKPNQCSICGYSHIKPYVRKHIESQHKHDSNATIIDLKSPELEAEWSQLLDQCFGVTYRKWKHHKEDTQHTVFAAGDEDYGHEHHFSPEEDVMTTL,not soluble
16,MPKIKRVKKGKKLKPNVMIFCEGETEEAYLRLIKRKYSAVNIKSKLKVKTCRRQGEALVEYAVSCIRSMGKAERDNYDLFYVMYDKDEQTTESIENAVRCAQRHRPEIKTIFSNECFELWLLLHFEEVNRYMTRENLYGRLEKVLHLKDSYRNFKGAEVCKYLEEKVAIAFQNTNKNWLSPLEEMKINENPYTNFPKELCEMLAQKEVDF,not soluble
